Measurements from patent US12012457 (SYNTHEKINE, dated 2024).
Residue numbers refer to the chain shown, from its start.

T1: extracellular domain of human IL23R (hIL23R ECD) (human, UniProt Q5VWK5 24-355)
T1 construct: also called hIL-23 ECD antigen
T1 sequence: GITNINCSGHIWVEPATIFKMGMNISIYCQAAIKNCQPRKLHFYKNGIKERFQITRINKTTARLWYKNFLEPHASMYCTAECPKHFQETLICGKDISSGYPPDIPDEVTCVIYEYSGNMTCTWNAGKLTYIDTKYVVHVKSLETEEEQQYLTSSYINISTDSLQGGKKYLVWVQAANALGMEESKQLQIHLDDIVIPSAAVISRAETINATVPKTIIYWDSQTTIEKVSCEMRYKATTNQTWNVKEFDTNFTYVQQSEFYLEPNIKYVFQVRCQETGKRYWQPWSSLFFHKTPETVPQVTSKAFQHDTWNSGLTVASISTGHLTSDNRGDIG

T2: extracellular domain of mouse IL23R (mIL23R ECD) (mouse, UniProt Q8K4B4 24-374)
T2 construct: also called mIL-23 ECD antigen
T2 sequence: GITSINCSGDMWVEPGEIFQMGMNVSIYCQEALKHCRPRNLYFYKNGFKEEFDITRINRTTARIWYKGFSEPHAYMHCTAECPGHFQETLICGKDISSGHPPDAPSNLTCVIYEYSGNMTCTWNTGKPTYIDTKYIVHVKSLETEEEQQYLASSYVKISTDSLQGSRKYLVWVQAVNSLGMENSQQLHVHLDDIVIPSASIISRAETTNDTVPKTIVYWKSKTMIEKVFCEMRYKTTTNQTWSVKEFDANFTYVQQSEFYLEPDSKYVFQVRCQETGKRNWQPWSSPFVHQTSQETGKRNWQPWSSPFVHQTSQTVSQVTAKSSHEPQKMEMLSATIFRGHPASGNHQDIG

B1: hIL23R VHH1 (VHH)
VHH: QVQLQESGGGSVQAGGSLRLSCAASGYTYCSYDMSWYRQAPGKKREFVSAFNSDGTTSYADSVKGRFTISQDKAKNTVYLQMNSLKPEDTAMYYCKTDPHVQSSGGYCPPYWGQGTQVTVSS
B2: mIL23R VHH12 (VHH)
VHH: QVQLQESGGGSVQAGGSLRLSCAASGYTYSSCTMGWYRQAPGKERELVSMLISDGSTFYADSVKGRFTFSQENAKNTVYLQMNSLKPEDTAMYYCGCATLGSRTVWGQGTQVTVSS
B3: mIL23R VHH11 (VHH)
VHH: B2 VHH with N76S
B4: mIL23R VHH1 (VHH)
VHH: B2 VHH with N73Y
B5: mIL23R VHH15 (VHH)
VHH: B2 VHH with L51V, I52F, V105I
B6: mIL23R VHH8 (VHH)
VHH: B2 VHH with A23T, G26R, L51V, I52F, V105I
B7: mIL23R VHH25 (VHH)
VHH: B2 VHH with Y94F
B8: mIL23R VHH10 (VHH)
VHH: B2 VHH with Y27D, E46D, I52M, S53G, V105I
B9: mIL23R VHH27 (VHH)
VHH: B2 VHH with F69S
B10: mIL23R VHH16 (VHH)
VHH: B2 VHH with Y27D, E46D, I52M, S53G, S84N, V105I
B11: mIL23R VHH36 (VHH)
VHH: B2 VHH with Y27D, E46D, L51V, I52F, V105I
B12: mIL23R VHH18 (VHH)
VHH: QVQLQESGGGLVQPGGSLRLSCAASGFTFRLTAMRWVRQAPGKGLEWVSGIDSRGSTIYADSVKGRFTISKDNAKNTLYLQLNSLKTEDTAMYYCAQGVYGDTYSGSQGTQVTVSS
B13: mIL23R VHH9 (VHH)
VHH: B12 VHH with A24T, L45V, R54A, L82M
B14: mIL23R VHH19 (VHH)
VHH: B12 VHH with T32S
B15: mIL23R VHH34 (VHH)
VHH: B12 VHH with Y104H
B16: mIL23R VHH17 (VHH)
VHH: B12 VHH with L11S, P14A
B17: mIL23R VHH23 (VHH)
VHH: B12 VHH with T28N, T32Y, L45V, R54G
B18: mIL23R VHH2 (VHH)
VHH: B12 VHH with L11S, P14A, R19T, A23T, S25P, T32A
B19: mIL23R VHH30 (VHH)
VHH: B12 VHH with Q108L
B20: mIL23R VHH42 (VHH)
VHH: B12 VHH with R30S, L31N, T32Y
B21: mIL23R VHH40 (VHH)
VHH: B12 VHH with T87S
B22: mIL23R VHH31 (VHH)
VHH: B12 VHH with K71R
B23: mIL23R VHH44 (VHH)
VHH: B12 VHH with T32S, L45F
B24: mIL23R VHH28 (VHH)
VHH: B12 VHH with K71R, T90A
B25: mIL23R VHH46 (VHH)
VHH: B12 VHH with T32S, N73D
B26: mIL23R VHH45 (VHH)
VHH: B12 VHH with T32S, K64E
B27: mIL23R VHH13 (VHH)
VHH: B12 VHH with A24T, T32A
B28: mIL23R VHH29 (VHH)
VHH: QVQLQESGGGLVQPGGSLRLSCAASGFTFSTSAMTWVRQAPGKGLDWVSGIDSGGTTVYADSVKGRFTISKDNAKNTLYLQMNSLKTEDTAVYYCATGLPWGNTWRTRGQGTQVTVSS
B29: mIL23R VHH14 (VHH)
VHH: B28 VHH with S30R, K71R, N73S, T97M
B30: mIL23R VHH33 (VHH)
VHH: B28 VHH with A23T, A24T, T31S, R108T
B31: mIL23R VHH7 (VHH)
VHH: B28 VHH with T31R, K71R, N73S, T97I
B32: mIL23R VHH20 (VHH)
VHH: B28 VHH with T31S, F67A, S70L
B33: mIL23R VHH32 (VHH)
VHH: B28 VHH with Q13R, T31R, K71R, N73S, T97I
B34: mIL23R VHH38 (VHH)
VHH: B28 VHH with T104I
B35: mIL23R VHH41 (VHH)
VHH: B28 VHH with S21T
B36: mIL23R VHH21 (VHH)
VHH: B28 VHH with A24T, T31S, R108T
B37: mIL23R VHH37 (VHH)
VHH: B28 VHH with A24T, T31S, S32G, R108T
B38: mIL23R VHH39 (VHH)
VHH: B28 VHH with T31R, K71R, N73S, S84G, T97I
B39: mIL23R VHH35 (VHH)
VHH: B28 VHH with S21A, A23S, T31S, F67A, S70L
B40: mIL23R VHH4 (VHH)
VHH: QVQLQESGGGSVQAGGSLRLSCAASGYTYSNNCMGWFRQAPGKDRERIANIYTGGGRTTYADSVKGRFTISQDSAKSTVYLQMNSLKPEDTAMYYCAAGSCGSARSEYSYWGQGTQVTVSS
B41: mIL23R VHH6 (VHH)
VHH: QVQLQESGGGSVQAGGSLRLSCAASGYTSGNYWMGWFRQAPGKEREGVATLWTGGASTFYGDSVKGRFTISRDNFKNTLYLQMNSLKVEDTAMYYCAADPALRLGANILRPAEYKYWGQGTQVTVSS
B42: mIL23R VHH3 (VHH)
VHH: QVQLQESGGGSVQAGGSLRLSCTASVNTYCEYNMSWYRQAPGKEREFVSGVDSDGSTRYSESVKGRFTISQDNAKNTMYLQMNGLKPEDTAMYYCKTYVCTFCSGNSCYYEYKYYYEGQGTQVTVSS
B43: mIL23R VHH26 (VHH)
VHH: QVQLQESGGGSVQAGGSLRLSCAASGYTFCMAWFRQAPGKEREGVARFYTRDGYTYYSDSVKGRFTISQNNAKNTLYLQMNSLKSEDTAMYYCAADLTRCSSNKNDFRYWGQGTQVTVSS
B44: mIL23R VHH24 (VHH)
VHH: B43 VHH with A24V, D59G
B45: mIL23R VHH22 (VHH)
VHH: B43 VHH with G53S
B46: mIL23R VHH43 (VHH)
VHH: B43 VHH with N70D
B47: mIL23R VHH5 (VHH)
VHH: B43 VHH with T98A

molecular target: T1, extracellular domain of human IL23R …; assay: periplasmic extract ELISA (PE-ELISA), 96-well plate, colorimetric

Binding result, binds:
B1

molecular target: T2, extracellular domain of mouse IL23R …; assay: as above

Binding result, binds:
B2
B3
B4
B5
B6
B7
B8
B9
B10
B11
B12
B13
B14
B15
B16
B17
B18
B19
B20
B21
B22
B23
B24
B25
B26
B27
B28
B29
B30
B31
B32
B33
B34
B35
B36
B37
B38
B39
B40
B41
B42
B43
B44
B45
B46
B47
